B1: DNA primase (Geobacillus stearothermophilus), Q9X4D0 (parent)
chain: MGHRIPEETIEAIRRGVDIVDVIGEYVQLKRQGRNYFGLCPFHGEKTPSFSVSPEKQIFHCFGCGAGGNAFTFLMDIEGIPFVEAAKRLAAKAGVDLSVYELDVRGRDDGQTDEAKAMTEAHALLKRFYHHLLVHTKEGQAALDYLQARGWTKETIDRFEIGYAPDAPDAAAKLLESHSFSLPVMEKAGLLTKKEDGRYVGRFRNRIMFPIHDHRGETVGFSGRLLGEGHPKYVNSPETPVFRKGAILYHFHAARVPIRKRQEALLVEGFADVISAAQAGIDYAIATMGTSLTEEQARILRPCDTITICYDGDRAGIEAAWAAAEQLSALGCRVKVASLPNGLDPDEYIRVYGGERFAGEAGCRRPLVAFKMAYLRRGKNLQHEGERLRYIDEALREIGKLSSPVEQDYYLRQLAEEFSLSLSALHEQLSRSQRERTKPREAPDGETARPMLAKKLLPAFQNAERLLLAHMMRSRDVALVVQERIGGRFNIEEHRALAAYIYAFYEEGHEADPGALISRIPGELQPLASDVSLLLIADDVSEQELEDYIRHVLNRPKWLMLKVKEQEKTEAERRKDFLTAARIAKEMIEMKKMLSSS
partner: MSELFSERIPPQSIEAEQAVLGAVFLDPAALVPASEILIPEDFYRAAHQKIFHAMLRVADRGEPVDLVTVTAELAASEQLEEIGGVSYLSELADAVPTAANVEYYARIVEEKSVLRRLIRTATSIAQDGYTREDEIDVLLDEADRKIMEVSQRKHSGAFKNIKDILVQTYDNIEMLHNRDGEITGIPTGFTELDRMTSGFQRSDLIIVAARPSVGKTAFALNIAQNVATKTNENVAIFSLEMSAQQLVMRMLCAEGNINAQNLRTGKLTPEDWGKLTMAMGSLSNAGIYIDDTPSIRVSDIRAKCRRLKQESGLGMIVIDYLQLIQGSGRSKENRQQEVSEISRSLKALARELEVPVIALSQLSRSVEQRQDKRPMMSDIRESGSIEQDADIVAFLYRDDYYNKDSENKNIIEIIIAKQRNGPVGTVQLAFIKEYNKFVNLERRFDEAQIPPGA

Variants of: B1
Settings: with dnab_geose dnaB

| effect of a mutation on the interaction | Variant |
| --- | --- |
| decreasing interaction strength | P458A |

Variants of: B1
Settings: with dnab_geose dnaB
Remark: another data set of the same source

| effect of a mutation on the interaction | Variant |
| --- | --- |
| decreasing interaction strength | Y548A |

Source: IntAct's records for PubMed 18366438
